{"source": "patent US20150139990A1", "about": "(DAINIPPON SUMITOMO PHARMA, published 2015)", "binders": {"B1": {"name": "002-A07 IgG4 antibody (antibody)", "heavy": "not shown", "light": "QSVLTQPPSASGTPGQRVTISCTGSTSNIGAGYDTHWYQQLPGTAPKLLIYGNSNRPSGVPDRFSGSKSGTSASLAISGLRSEDEADYYCQSYDTNLSVWVFGGGTKLTVLGQPKAAPSVTLFPPSSEELQANKATLVCLISDFYPGAVTVAWKADSSPVKAGVETTTPSKQSNNKYAASSYLSLTPEQWKSHRSYSCQVTHEGSTVEKTVAPTECS", "notes": "human IgG4 S228P, lambda light chain"}, "B2": {"name": "003-D07 (antibody, human IgG4 S228P, lambda, V domains shown)", "VH": "EVQLLESGGGLVQPGGSLRLSCAASGFTFSSNYMSWVRQAPGKGLEWVSYISSSSTYTDYADSVKGRFTISRDNSKNTLYLQMNSLRAEDTAVYYCARYSYDRDNFDYWGQGTLVTVSS", "VL": "QSVLTQPFSASGTPGQRVTISCTGSTSNIGAGYDTHWYQHLPGTAPKLLIYGNSNRPSGVPDRFSGSKSGTSASLAISGLRSEDEADYYCQSYDTNLSVWVFGGGTKLTVLG", "notes": "IgG4 S228P"}, "B3": {"name": "002-A07 S115A (antibody, human IgG4 S228P, lambda, V domains shown)", "VH": "EVQLLESGGGLVQPGGSLRLSCAASGFTFSSNYMSWVRQAPGKGLEWVSYISSSSTYTDYADSVKGRFTISRDNSKNTLYLQMNSLRAEDTAVYYCARYSYGRDNFDYWGQGTLVTVSS", "VL": "QSVLTQPPSASGTPGQRVTISCTGSTSNIGAGYDTHWYQQLPGTAPKLLIYGNSNRPSGVPDRFSGSKSGTSASLAISGLRSEDEADYYCQSYDTNLAVWVFGGGTKLTVLG", "notes": "IgG4 S228P; glycosylation site mutant of 002-A07 VL"}}, "key": {"[1]": {"target": "T1, human CD81 on CD81-expressing cells (Jurkat E6.1, human PBMC, Ramos) (human, UniProt P60033 1-236)", "T1 construct": "endogenous CD81 of the cells; also called wild type human CD81", "T1 sequence": "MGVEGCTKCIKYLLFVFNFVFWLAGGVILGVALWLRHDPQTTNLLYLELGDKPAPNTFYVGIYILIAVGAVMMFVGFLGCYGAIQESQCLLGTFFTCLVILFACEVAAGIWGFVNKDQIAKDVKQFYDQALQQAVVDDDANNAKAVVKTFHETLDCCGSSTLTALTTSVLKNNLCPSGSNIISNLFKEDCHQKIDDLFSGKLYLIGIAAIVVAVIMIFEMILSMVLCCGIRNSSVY", "experiment": "flow cytometry, human PBMC", "description": "(§1) Based on known information (JOURNAL OF VIROLOGY., 79, 4316-4328, 2005), Jurkat E6.1 cells and human PBMC (Peripheral Blood Mononuclear cells) were used as human CD81-expressing cells to confirm binding of the antibodies of the present invention obtained in Example 1 to the human CD81-expressing cells. Jurkat E6.1 cells were purchased from European Collection of Cell Cultures (ECACC) (Cat No. 88042803). Human PBMC were purchased from KAC Co., Ltd. (KAC). These cells were collected by centrifugation (4,000 rpm, 3 min, 4° C.) and suspended in FACS staining buffer (phosphate buffer, 0.09% sodium azide, 1% bovine serum albumin (BSA: Hyclone Laboratories)). The number of viable cells was counted using trypan blue and 10⁶ cells/100 μl were added in an eppendorf tube.\n(§2) To the cells prepared in (1) above was added the anti-human CD81 antibody (002-A07 or 005-001) prepared in Example 1 or a human IgG4 (Acris) as a control (0.1 μg), and the cells were incubated for 20 min at 4° C. […] The binding ratio (%) of the anti-human CD81 antibody to the cells was analyzed by flow cytometry using FACS Calibur (BD Biosciences) and calculated as the percentage of cells having a PE-derived fluorescent intensity greater than that observed when the control IgG4 is used. […]"}, "[2]": {"target": "T2, c175h human-chicken CD81 chimera (chicken; human)", "T2 construct": "as m30; not shown: C-terminal V5 and 6xHis tags", "T2 chain": "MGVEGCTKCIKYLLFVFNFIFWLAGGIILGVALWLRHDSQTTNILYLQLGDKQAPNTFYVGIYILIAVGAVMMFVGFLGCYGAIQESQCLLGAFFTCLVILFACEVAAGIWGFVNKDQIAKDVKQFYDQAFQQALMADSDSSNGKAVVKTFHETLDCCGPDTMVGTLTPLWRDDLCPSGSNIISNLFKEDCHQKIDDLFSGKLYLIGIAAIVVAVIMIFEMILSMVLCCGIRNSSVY", "experiment": "ELISA", "experimental": "(§3) To identify the epitopes to which each of the anti-human CD81 antibodies (002-A07 and 005-001) bind, ELISA assays were performed using human-chicken CD81 chimera constructs listed in Table 6. Each construct was transiently expressed in CHO cells and its cell membrane fraction was solubilized with detergents and immobilized onto a plate.\n(§4) As control antibodies, human IgG4 antibody (Acris Antibodies GmbH) and mouse IgG antibody were used. Human-chicken chimera protein was captured via His tag introduced into the C-terminal by adding the membrane fraction (5 μg/100 μL/well) prepared (1) above to Ni NTA His Sorb plate (QIAGEN) in the presence of 1% (w/v) n-Octylglucoside and incubating for 3 hours at 4° C. After washing with TBST (TBS, 0.05% (v/v) Tween 20) three times, an anti-human CD81 antibody or a control antibody (50 μL/well) was added and incubated for 1 hour at room temperature (RT). After washing, 2000 fold-diluted HRP-labeled anti-human IgG4 antibody (Mouse anti-human IgG₄ HRP clone:HP6023 Beckman Coulter) or 1000 fold-diluted HRP-labeled anti-mouse IgG antibody (Invitrogen) (50 μL/well) were added. The plate was incubated for 1 hour at RT and washed with TBST three times. And then, peroxidase activity was determined by TMB One solution (Promega; Code 53025). The reaction was stopped with 2 M H₂SO₄ (50 μL) and absorbance at 450 nm was measured."}, "[3]": {"target": "T3, c190h human-chicken CD81 chimera (chicken; human)", "T3 construct": "as m30; not shown: C-terminal V5 and 6xHis tags", "T3 chain": "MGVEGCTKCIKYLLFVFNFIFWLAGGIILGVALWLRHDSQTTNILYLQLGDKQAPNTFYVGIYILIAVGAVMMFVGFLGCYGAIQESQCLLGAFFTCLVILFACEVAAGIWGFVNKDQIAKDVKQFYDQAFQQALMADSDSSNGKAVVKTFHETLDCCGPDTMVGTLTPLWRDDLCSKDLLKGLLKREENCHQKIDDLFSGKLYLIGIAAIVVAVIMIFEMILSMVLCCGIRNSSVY", "experiment": "ELISA", "experimental": "as §3, §4"}, "[4]": {"target": "T1, human CD81 on CD81-expressing cells …", "experiment": "flow cytometry, Jurkat E6.1 cells", "description": "as §1, §2"}, "human CD81 mutant N172A": {"target": "T4, human CD81 mutant N172A (human, UniProt P60033 1-236, limits assumed)", "T4 construct": "as m30; not shown: C-terminal V5 and 6xHis tags", "T4 sequence": "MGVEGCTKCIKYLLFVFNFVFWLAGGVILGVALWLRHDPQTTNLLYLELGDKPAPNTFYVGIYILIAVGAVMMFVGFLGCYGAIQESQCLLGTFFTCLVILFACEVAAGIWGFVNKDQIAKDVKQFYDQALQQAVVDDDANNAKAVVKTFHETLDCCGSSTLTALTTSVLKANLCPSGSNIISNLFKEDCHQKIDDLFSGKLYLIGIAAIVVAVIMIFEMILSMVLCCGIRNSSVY", "experiment": "ELISA"}, "human CD81 mutant Y127W": {"target": "T5, human CD81 mutant Y127W (human, UniProt P60033 1-236, limits assumed)", "T5 construct": "as m30; not shown: C-terminal V5 and 6xHis tags", "T5 sequence": "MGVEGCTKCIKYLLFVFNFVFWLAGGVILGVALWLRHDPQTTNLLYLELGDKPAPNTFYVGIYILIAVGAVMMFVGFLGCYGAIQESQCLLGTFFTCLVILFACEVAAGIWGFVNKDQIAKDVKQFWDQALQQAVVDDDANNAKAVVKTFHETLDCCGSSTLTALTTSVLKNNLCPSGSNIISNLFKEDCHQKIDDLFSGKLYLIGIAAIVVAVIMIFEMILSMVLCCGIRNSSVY", "experiment": "ELISA"}}, "data": [{"binder": "B1", "values": [{"measurement": "binding ratio to cells (%)", "setting": "[1]", "result": 99, "unit": "%"}, {"measurement": "absorbance at 450 nm relative to hCD81", "setting": "[2]", "result": "< 10", "unit": "%"}, {"measurement": "absorbance at 450 nm relative to hCD81", "setting": "[3]", "result": "< 10", "unit": "%"}, {"measurement": "binding ratio to cells (%)", "setting": "[4]", "result": 100, "unit": "%"}]}, {"binder": "B2", "values": [{"measurement": "relative binding affinity", "setting": "human CD81 mutant N172A", "result": "< 20", "unit": "%"}]}, {"binder": "B3", "values": [{"measurement": "relative binding affinity", "setting": "human CD81 mutant Y127W", "result": "< 20", "unit": "%"}]}]}
